Results on 16 variants are retold here after the supplement of paper PMC7125110.

To fix the notation:
B1: glmS ribozyme (parent)
chain: AUAAAAGCGCCAGAACUACAGAAAUGUAGUUGACGAGGAGGAGGUUUAUCGAAUUUUCGGCGGAUGCCUCCAAA

Common to all, as to settings: with glucosamine-6-phosphate
Series [1] covers variants of B1. In words: kcat; higher = faster cleavage; RNA array. Summed up: (§1)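 E. coli RNA polymerase transcribed barcoded ribozyme variants in situ on sequenced MiSeq chips, which were tracked via a hybridised Cy3 probe at 37 °C. Tiles were imaged over ~14 h after glucosamine-6-phosphate (40 μM to 10 mM) in HEPES/KCl/Mg(OAc)2 buffer was flowed in. Normalised per-tile medians were fit to one- or two-exponential decays for kobs, and kcat and KM came from weighted Michaelis–Menten fits.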

In series [2] the parent is B1. In words: KM; higher = weaker cofactor use; RNA array. In outline: as §1
In series [3] the parent is B1. In words: self-cleavage kobs at 40 uM GlcN6P; higher = faster cleavage; RNA array. In outline:
as §1

The variants in series [4] derive from B1. The experiment in a line: self-cleavage kobs at 160 uM GlcN6P; higher = faster cleavage; RNA array. Summed up: as §1
Series [5] covers variants of B1. In words: self-cleavage kobs at 640 uM GlcN6P; higher = faster cleavage; RNA array. Summed up: as §1
The variants in series [6] derive from B1. The experiment in a line: self-cleavage kobs at 2500 uM GlcN6P; higher = faster cleavage; RNA array. Summed up:
as §1

Series [7] covers variants of B1. The experiment in a line: self-cleavage kobs at 10000 uM GlcN6P; higher = faster cleavage; RNA array. Summed up: as §1

± gives the standard error. For some of these results: Fewer inactive variants are shown than the library holds.

By kcat is commonly meant the maximal rate divided by the concentration of active sites. The term KM denotes the substrate concentration at which the rate is half of its maximum. A39U C70G: in series [1], the turnover number (kcat) was 0.000797 ± 0.00021 s⁻¹. Besides, in series [2], the KM was found to be 1500 ± 720 µM. In series [3], the “self-cleavage kobs at 40 uM GlcN6P” value amounted to 4.48e-05 ± 9.1e-06 s⁻¹. The “self-cleavage kobs at 160 uM GlcN6P” value in series [4] was 6.66e-05 ± 2e-05 s⁻¹. The “self-cleavage kobs at 640 uM GlcN6P” value in series [5] stood at 0.000201 ± 3.6e-05 s⁻¹. In addition, in series [6], the “self-cleavage kobs at 2500 uM GlcN6P” value stood at 0.000522 ± 8.8e-05 s⁻¹. Besides, the “self-cleavage kobs at 10000 uM GlcN6P” value in series [7] was determined as 0.000713 ± 0.0001 s⁻¹.

On to U46G U55C, for which the kcat in series [1] was determined as 0.0109 ± 0.0051 s⁻¹. Also, in series [3], the “self-cleavage kobs at 40 uM GlcN6P” value amounted to 0.000264 ± 3.5e-05 s⁻¹. Further, in series [4], the “self-cleavage kobs at 160 uM GlcN6P” value was 0.000497 ± 5.4e-05 s⁻¹. Further, the “self-cleavage kobs at 640 uM GlcN6P” value in series [5] worked out at 0.00171 ± 0.00029 s⁻¹. For the same variant, the “self-cleavage kobs at 2500 uM GlcN6P” value in series [6] was 0.00371 ± 0.00062 s⁻¹. Also, the “self-cleavage kobs at 10000 uM GlcN6P” value in series [7] was found to be 0.0103 ± 0.0013 s⁻¹.

As for U46G U55A, the kcat in series [1] turned out to be 0.0163 ± 0.0061 s⁻¹. Also, the “self-cleavage kobs at 40 uM GlcN6P” value in series [3] stood at 0.000166 ± 3.9e-05 s⁻¹. Besides, in series [5], the “self-cleavage kobs at 640 uM GlcN6P” value amounted to 0.0028 ± 0.00069 s⁻¹. Moreover, the “self-cleavage kobs at 2500 uM GlcN6P” value in series [6] came out at 0.00456 ± 0.0013 s⁻¹. Further, the “self-cleavage kobs at 10000 uM GlcN6P” value in series [7] turned out to be 0.0133 ± 0.0027 s⁻¹.

Take A33C C61A: the kcat in series [1] is below 1e-05 s⁻¹. Moreover, the “self-cleavage kobs at 10000 uM GlcN6P” value in series [7] is below 1e-05 s⁻¹.

Take G37A U69A: the kcat in series [1] stood at 7.14e-05 ± 8.5e-06 s⁻¹. Moreover, the Michaelis-Menten constant (KM) in series [2] came to 7590 ± 2000 µM. Further, the “self-cleavage kobs at 10000 uM GlcN6P” value in series [7] turned out to be 4.06e-05 ± 8.5e-06 s⁻¹.

Take A53C U56A: the turnover number (kcat) in series [1] is 0.00313 ± 0.00063 s⁻¹. Besides, the KM in series [2] came out at 2700 ± 730 µM. For the same variant, the “self-cleavage kobs at 40 uM GlcN6P” value in series [3] worked out at 4.81e-05 ± 7e-06 s⁻¹. The “self-cleavage kobs at 160 uM GlcN6P” value in series [4] turned out to be 0.000205 ± 3.7e-05 s⁻¹. In addition, the “self-cleavage kobs at 640 uM GlcN6P” value in series [5] was determined as 0.000467 ± 9.1e-05 s⁻¹. The “self-cleavage kobs at 2500 uM GlcN6P” value in series [6] was determined as 0.00171 ± 0.00027 s⁻¹. In addition, the “self-cleavage kobs at 10000 uM GlcN6P” value in series [7] came out at 0.00243 ± 0.00038 s⁻¹.

Turning to G9A U49A A52G, the kcat in series [1] was below 1e-05 s⁻¹.

A15G U65A: in series [1], the catalytic constant (kcat) was determined as 0.00646 ± 0.0018 s⁻¹. Also, the KM in series [2] is 3290 ± 1300 µM. Also, the “self-cleavage kobs at 40 uM GlcN6P” value in series [3] worked out at 9.64e-05 ± 1.3e-05 s⁻¹. In series [4], the “self-cleavage kobs at 160 uM GlcN6P” value was determined as 0.000343 ± 0.00011 s⁻¹. The “self-cleavage kobs at 640 uM GlcN6P” value in series [5] came to 0.000867 ± 0.00018 s⁻¹. In series [6], the “self-cleavage kobs at 2500 uM GlcN6P” value amounted to 0.00193 ± 0.00048 s⁻¹. Also, the “self-cleavage kobs at 10000 uM GlcN6P” value in series [7] came out at 0.00545 ± 0.00064 s⁻¹.

For C11A U65G, the kcat in series [1] turned out to be 3.43e-05 ± 4.3e-07 s⁻¹. Besides, the Michaelis-Menten constant (KM) in series [2] amounted to 777 ± 84 µM. For the same variant, the “self-cleavage kobs at 40 uM GlcN6P” value in series [3] is below 1e-05 s⁻¹. In addition, the “self-cleavage kobs at 640 uM GlcN6P” value in series [5] is below 1e-05 s⁻¹. Besides, in series [7], the “self-cleavage kobs at 10000 uM GlcN6P” value came to 3.18e-05 ± 1.3e-05 s⁻¹.

As for U30C U55C, the kcat in series [1] stood at 0.000295 ± 3.2e-05 s⁻¹. In addition, the Michaelis constant (KM) in series [2] is 1490 ± 290 µM. In series [4], the “self-cleavage kobs at 160 uM GlcN6P” value turned out to be 3.54e-05 ± 9.7e-06 s⁻¹. The “self-cleavage kobs at 640 uM GlcN6P” value in series [5] worked out at 8.83e-05 ± 8.8e-06 s⁻¹. In addition, the “self-cleavage kobs at 2500 uM GlcN6P” value in series [6] worked out at 0.000167 ± 2.4e-05 s⁻¹. For the same variant, the “self-cleavage kobs at 10000 uM GlcN6P” value in series [7] stood at 0.000281 ± 3.9e-05 s⁻¹.

On to U30A G40A, for which the kcat in series [1] turned out to be 0.0022 ± 0.0011 s⁻¹. The “self-cleavage kobs at 40 uM GlcN6P” value in series [3] came out at 4.53e-05 ± 1.6e-05 s⁻¹. For the same variant, in series [4], the “self-cleavage kobs at 160 uM GlcN6P” value was determined as 7.47e-05 ± 1.6e-05 s⁻¹. For the same variant, the “self-cleavage kobs at 640 uM GlcN6P” value in series [5] stood at 0.000134 ± 5.6e-05 s⁻¹. Also, the “self-cleavage kobs at 2500 uM GlcN6P” value in series [6] came out at 0.000927 ± 0.0002 s⁻¹. In addition, the “self-cleavage kobs at 10000 uM GlcN6P” value in series [7] came to 0.0014 ± 0.00025 s⁻¹.

For the variant A42U G66U, the kcat in series [1] turned out to be 6.96e-05 ± 7.8e-06 s⁻¹. The KM in series [2] came out at 1930 ± 830 µM. The “self-cleavage kobs at 40 uM GlcN6P” value in series [3] was below 1e-05 s⁻¹. Moreover, the “self-cleavage kobs at 2500 uM GlcN6P” value in series [6] was determined as 4.29e-05 ± 9.1e-06 s⁻¹. In series [7], the “self-cleavage kobs at 10000 uM GlcN6P” value worked out at 5.76e-05 ± 6.8e-06 s⁻¹.

For G29C C61G, the catalytic constant (kcat) in series [1] turned out to be 2.64e-05 ± 1e-05 s⁻¹. Also, the “self-cleavage kobs at 40 uM GlcN6P” value in series [3] was below 1e-05 s⁻¹.

C10A C71U: in series [1], the kcat is below 1e-05 s⁻¹.

On to G43U U55C, for which the kcat in series [1] came out at 3.2e-05 ± 2.4e-06 s⁻¹. In series [6], the “self-cleavage kobs at 2500 uM GlcN6P” value was determined as 3.2e-05 ± 1.2e-05 s⁻¹. For the same variant, in series [7], the “self-cleavage kobs at 10000 uM GlcN6P” value came out at 3.01e-05 ± 8.7e-06 s⁻¹.

As for A15U U69C, in series [1], the turnover number (kcat) came to 0.000652 ± 0.00018 s⁻¹. The Michaelis-Menten constant (KM) in series [2] was found to be 1120 ± 510 µM. Also, the “self-cleavage kobs at 40 uM GlcN6P” value in series [3] amounted to 5.12e-05 ± 1.2e-05 s⁻¹. Moreover, in series [4], the “self-cleavage kobs at 160 uM GlcN6P” value stood at 8.72e-05 ± 1.3e-05 s⁻¹. In series [5], the “self-cleavage kobs at 640 uM GlcN6P” value was found to be 0.000203 ± 2.7e-05 s⁻¹. Also, the “self-cleavage kobs at 2500 uM GlcN6P” value in series [6] stood at 0.000443 ± 7.7e-05 s⁻¹. Further, in series [7], the “self-cleavage kobs at 10000 uM GlcN6P” value came to 0.000677 ± 0.00011 s⁻¹.
